This is an account of results in the supplement of paper PMC7125110.

± gives the standard error. This sample holds only a part of the variants without activity.

To fix the notation:
B1: glmS ribozyme (parent)
chain: AUAAAAGCGCCAGAACUACAGAAAUGUAGUUGACGAGGAGGAGGUUUAUCGAAUUUUCGGCGGAUGCCUCCAAA

Conditions in all cases: with glucosamine-6-phosphate
The variants in data set [1] derive from B1. As to the kind of experiment: self-cleavage kobs at 40 uM GlcN6P; higher = faster cleavage; RNA array. The procedure, abridged:
(§1)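 Tiles of sequenced MiSeq chips were imaged over ~14 h at 37 °C. On them, barcoded ribozyme variants had been transcribed in situ by E. coli RNA polymerase and were tracked via a hybridised Cy3 probe while glucosamine-6-phosphate (40 μM to 10 mM) in HEPES/KCl/Mg(OAc)2 buffer flowed in. Per-tile medians, normalised to baseline and to non-cleaving reference variants, were fit to one- or two-exponential decays for kobs, and weighted Michaelis–Menten fits gave kcat and KM.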

Data set [2] covers variants of B1. The data set can be described thus: self-cleavage kobs at 160 uM GlcN6P; higher = faster cleavage; RNA array. Summed up: as §1
Data set [3] covers variants of B1. The data set can be described thus: self-cleavage kobs at 640 uM GlcN6P; higher = faster cleavage; RNA array. Summed up: as §1
Variants of B1 are the subject of data set [4]. The data set can be described thus: self-cleavage kobs at 2500 uM GlcN6P; higher = faster cleavage; RNA array. The procedure, abridged:
as §1

Data set [5] covers variants of B1. As to the kind of experiment: self-cleavage kobs at 10000 uM GlcN6P; higher = faster cleavage; RNA array. The procedure, abridged: as §1

Consider G9C G41C, for which, in the data set with glucosamine-6-phosphate [1], the “self-cleavage kobs at 40 uM GlcN6P” value was less than 1e-05 s⁻¹. For the same variant, the “self-cleavage kobs at 160 uM GlcN6P” value in the data set with glucosamine-6-phosphate [2] is less than 1e-05 s⁻¹. For the same variant, the “self-cleavage kobs at 640 uM GlcN6P” value in the data set with glucosamine-6-phosphate [3] was less than 1e-05 s⁻¹. Also, the “self-cleavage kobs at 2500 uM GlcN6P” value in the data set with glucosamine-6-phosphate [4] was less than 1e-05 s⁻¹. Further, the “self-cleavage kobs at 10000 uM GlcN6P” value with glucosamine-6-phosphate [5] was less than 1e-05 s⁻¹.

For the variant C34G A64U, the “self-cleavage kobs at 40 uM GlcN6P” value with glucosamine-6-phosphate [1] was less than 1e-05 s⁻¹. The “self-cleavage kobs at 160 uM GlcN6P” value with glucosamine-6-phosphate [2] was less than 1e-05 s⁻¹. The “self-cleavage kobs at 640 uM GlcN6P” value in the data set with glucosamine-6-phosphate [3] was less than 1e-05 s⁻¹. Moreover, the “self-cleavage kobs at 2500 uM GlcN6P” value with glucosamine-6-phosphate [4] is less than 1e-05 s⁻¹. Besides, the “self-cleavage kobs at 10000 uM GlcN6P” value with glucosamine-6-phosphate [5] was less than 1e-05 s⁻¹.

For G37U G41C, the “self-cleavage kobs at 40 uM GlcN6P” value with glucosamine-6-phosphate [1] was less than 1e-05 s⁻¹. Also, the “self-cleavage kobs at 160 uM GlcN6P” value in the data set with glucosamine-6-phosphate [2] is less than 1e-05 s⁻¹. In the data set with glucosamine-6-phosphate [3], the “self-cleavage kobs at 640 uM GlcN6P” value is less than 1e-05 s⁻¹. For the same variant, the “self-cleavage kobs at 2500 uM GlcN6P” value in the data set with glucosamine-6-phosphate [4] was less than 1e-05 s⁻¹.

For the variant U31C C34U U65C, in the data set with glucosamine-6-phosphate [1], the “self-cleavage kobs at 40 uM GlcN6P” value is less than 1e-05 s⁻¹. Moreover, in the data set with glucosamine-6-phosphate [4], the “self-cleavage kobs at 2500 uM GlcN6P” value was less than 1e-05 s⁻¹. Moreover, the “self-cleavage kobs at 10000 uM GlcN6P” value with glucosamine-6-phosphate [5] was less than 1e-05 s⁻¹.

On to U47C A53U U56A G59C, for which the “self-cleavage kobs at 40 uM GlcN6P” value with glucosamine-6-phosphate [1] is less than 1e-05 s⁻¹. Also, in the data set with glucosamine-6-phosphate [3], the “self-cleavage kobs at 640 uM GlcN6P” value was less than 1e-05 s⁻¹. In the data set with glucosamine-6-phosphate [4], the “self-cleavage kobs at 2500 uM GlcN6P” value is less than 1e-05 s⁻¹. Also, the “self-cleavage kobs at 10000 uM GlcN6P” value in the data set with glucosamine-6-phosphate [5] was less than 1e-05 s⁻¹.

Regarding G7U C8U, in the data set with glucosamine-6-phosphate [1], the “self-cleavage kobs at 40 uM GlcN6P” value was less than 1e-05 s⁻¹. In the data set with glucosamine-6-phosphate [2], the “self-cleavage kobs at 160 uM GlcN6P” value is less than 1e-05 s⁻¹. Also, the “self-cleavage kobs at 640 uM GlcN6P” value with glucosamine-6-phosphate [3] is less than 1e-05 s⁻¹. For the same variant, the “self-cleavage kobs at 2500 uM GlcN6P” value in the data set with glucosamine-6-phosphate [4] was less than 1e-05 s⁻¹. In addition, the “self-cleavage kobs at 10000 uM GlcN6P” value in the data set with glucosamine-6-phosphate [5] is less than 1e-05 s⁻¹.

Take G9C C70U: the “self-cleavage kobs at 40 uM GlcN6P” value with glucosamine-6-phosphate [1] was less than 1e-05 s⁻¹. For the same variant, in the data set with glucosamine-6-phosphate [2], the “self-cleavage kobs at 160 uM GlcN6P” value was less than 1e-05 s⁻¹. The “self-cleavage kobs at 640 uM GlcN6P” value with glucosamine-6-phosphate [3] is less than 1e-05 s⁻¹. Also, in the data set with glucosamine-6-phosphate [4], the “self-cleavage kobs at 2500 uM GlcN6P” value was less than 1e-05 s⁻¹. In addition, the “self-cleavage kobs at 10000 uM GlcN6P” value with glucosamine-6-phosphate [5] was less than 1e-05 s⁻¹.

Turning to C11G G32U, the “self-cleavage kobs at 40 uM GlcN6P” value with glucosamine-6-phosphate [1] is less than 1e-05 s⁻¹. Further, in the data set with glucosamine-6-phosphate [2], the “self-cleavage kobs at 160 uM GlcN6P” value is less than 1e-05 s⁻¹. Moreover, the “self-cleavage kobs at 10000 uM GlcN6P” value with glucosamine-6-phosphate [5] was less than 1e-05 s⁻¹.

In the case of A14G U54A G59A, the “self-cleavage kobs at 40 uM GlcN6P” value with glucosamine-6-phosphate [1] is less than 1e-05 s⁻¹. The “self-cleavage kobs at 2500 uM GlcN6P” value with glucosamine-6-phosphate [4] stood at 8.37e-05 ± 2.7e-05 s⁻¹. For the same variant, in the data set with glucosamine-6-phosphate [5], the “self-cleavage kobs at 10000 uM GlcN6P” value worked out at 0.000121 ± 3.2e-05 s⁻¹.

Turning to A6G G60A G62C, the “self-cleavage kobs at 40 uM GlcN6P” value with glucosamine-6-phosphate [1] is less than 1e-05 s⁻¹.

For G38C G41U G60C, in the data set with glucosamine-6-phosphate [1], the “self-cleavage kobs at 40 uM GlcN6P” value was less than 1e-05 s⁻¹.

Take C8U C58U C67U U69C: in the data set with glucosamine-6-phosphate [1], the “self-cleavage kobs at 40 uM GlcN6P” value came out at 0.00084 ± 0.00041 s⁻¹. Further, the “self-cleavage kobs at 10000 uM GlcN6P” value with glucosamine-6-phosphate [5] was determined as 0.000669 ± 0.00018 s⁻¹.

Regarding A12G G13C A33U G63U, the “self-cleavage kobs at 40 uM GlcN6P” value with glucosamine-6-phosphate [1] was less than 1e-05 s⁻¹. Further, the “self-cleavage kobs at 10000 uM GlcN6P” value with glucosamine-6-phosphate [5] was less than 1e-05 s⁻¹.

Turning to A53U U54C C67A, in the data set with glucosamine-6-phosphate [1], the “self-cleavage kobs at 40 uM GlcN6P” value worked out at 0.000138 ± 2.9e-05 s⁻¹. In the data set with glucosamine-6-phosphate [5], the “self-cleavage kobs at 10000 uM GlcN6P” value was 0.00429 ± 0.0016 s⁻¹.

For G13U C50A, in the data set with glucosamine-6-phosphate [1], the “self-cleavage kobs at 40 uM GlcN6P” value was less than 1e-05 s⁻¹.

Consider G41U U55G C68U C70U, for which the “self-cleavage kobs at 40 uM GlcN6P” value with glucosamine-6-phosphate [1] was less than 1e-05 s⁻¹.

Consider G35C U69A C70G, for which, in the data set with glucosamine-6-phosphate [1], the “self-cleavage kobs at 40 uM GlcN6P” value was less than 1e-05 s⁻¹.

Consider A36U G51A, for which the “self-cleavage kobs at 40 uM GlcN6P” value with glucosamine-6-phosphate [1] was less than 1e-05 s⁻¹. Also, in the data set with glucosamine-6-phosphate [2], the “self-cleavage kobs at 160 uM GlcN6P” value was less than 1e-05 s⁻¹. Besides, the “self-cleavage kobs at 10000 uM GlcN6P” value with glucosamine-6-phosphate [5] is less than 1e-05 s⁻¹.

A33G G40U G59U: in the data set with glucosamine-6-phosphate [1], the “self-cleavage kobs at 40 uM GlcN6P” value was less than 1e-05 s⁻¹. In addition, the “self-cleavage kobs at 160 uM GlcN6P” value in the data set with glucosamine-6-phosphate [2] was less than 1e-05 s⁻¹. In addition, the “self-cleavage kobs at 640 uM GlcN6P” value with glucosamine-6-phosphate [3] was less than 1e-05 s⁻¹. Also, the “self-cleavage kobs at 2500 uM GlcN6P” value in the data set with glucosamine-6-phosphate [4] was less than 1e-05 s⁻¹.

G9C G66A: the “self-cleavage kobs at 40 uM GlcN6P” value with glucosamine-6-phosphate [1] was less than 1e-05 s⁻¹. Further, the “self-cleavage kobs at 640 uM GlcN6P” value with glucosamine-6-phosphate [3] was less than 1e-05 s⁻¹. Further, the “self-cleavage kobs at 10000 uM GlcN6P” value with glucosamine-6-phosphate [5] was less than 1e-05 s⁻¹.

As to C11G C34A, the “self-cleavage kobs at 40 uM GlcN6P” value in the data set with glucosamine-6-phosphate [1] is less than 1e-05 s⁻¹. Besides, in the data set with glucosamine-6-phosphate [2], the “self-cleavage kobs at 160 uM GlcN6P” value is less than 1e-05 s⁻¹. Further, the “self-cleavage kobs at 2500 uM GlcN6P” value in the data set with glucosamine-6-phosphate [4] is less than 1e-05 s⁻¹. The “self-cleavage kobs at 10000 uM GlcN6P” value with glucosamine-6-phosphate [5] is less than 1e-05 s⁻¹.
